# From patent publication US20230158109A1, “USE OF CD83 IN COMBINATION THERAPIES” (Colmmune, Inc., priority 2006, published 2023)
# Entries after “also recorded” stand apart in the source; their conditions may differ.
# B1: sCD83: recombinant extracellular domain of human CD83 cleaved from GST fusion, with four extra amino acids (Gly-Ser-Pro-Gly) at the amino terminal (protein, listed as Homo sapiens)
# chain: GSPGTPEVKVACSEDVDLPCTAPWDPQVPYTVSWVKLLEGGEERMETPQEDHLRGQHYHQKGQNGSFDAPNERPYSLKIRNTTSCNSGTYRCTLQDPDGQRNLSGKVILRVTGCPAQRKEETFKKYRAE
# modifications: printed: Gly-Ser-Pro-Gly; (1)..(125) Extracellular domain of human CD83
# notes: recombinant extracellular domain of human CD83 cleaved from GST fusion, with four extra amino acids (Gly-Ser-Pro-Gly) at the amino terminal
# Tests used:
# [1] = test system: C3H Hearts in BALB/c Recipients; test: Heterotopic heart transplantation, graft survival, C3H to BALB/c; conditions: sCD83 100 μg i.p. daily day -1 to 28, sirolimus 2 mg/kg oral day 0-14, anti-CD45RB 100 μg i.v. day 0-14
# Method: (§3) Hearts were removed from donor mice as indicated and transplanted into the peritoneal cavity of recipient mice (i.e., heterotopic transplantation). Recipient mice were treated as indicated, with some treatments beginning prior to transplantation. Survival of the allograft was monitored and scored as follows: “A,” beating strongly; “B,” mild decline in the intensity of pulsation; “C,” noticeable decline in the intensity of pulsation; “D,” complete cessation of cardiac impulses. Mean survival time of the transplanted tissue was determined for each treatment.
# In a first set of experiments, C3H donor mice and BALB/c recipient mice were used. In this set of experiments, sCD83 treatment began on day −1 (i.e., the day prior to transplantation) and lasted until day 28; each day, 100 μg of sCD83 was administered to each mouse by intraperitoneal injection. Sirolimus treatment began on day 0 (i.e., the day of transplantation) and continued until day 14; each day, 2 mg/kg of sirolimus was administered orally to each mouse. Anti-CD45RB treatment began on day 0 and continued until day 14; each day, 100 μg of anti-CD45RB (BioExpress, Inc., West Lebanon, New Hampshire) was administered to each mouse intravenously.
# [2] = test system: C3H Hearts in C57BL/6 Recipients; test: Heterotopic heart transplantation, graft survival, C3H to C57BL/6
# Method: as §3
# In a further set of experiments, C3H mouse hearts were transplanted into the peritoneal cavity of C57BL/6 mice (results shown in Table 3 and FIG. 7). […] Other treatments included subtherapeutic doses of either anti-CD45RB monoclonal antibody (“mAb”) (i.e., 100 μg/mouse every day from days 0 through 14 by intravenous injection) or sirolimus (i.e., 2 mg/kg every day from days 0 through 14 by oral administration (“p.o.”)).
# [3] = test system: C57BL/6 Hearts in BALB/c Recipients; test: Intra-abdominal heterotopic heart transplantation, graft survival, C57BL/6 to BALB/c; format: in vivo, mouse; conditions: sCD83 100 μg i.p. daily day -1 to 7, then every other day to day 28, tacrolimus 8 mg/kg/day oral, MMF 80 mg/kg/day oral
# Method: Treatment with tacrolimus was by daily oral administration of a subtherapeutic dose of 8 mg/kg/day, and treatment with MMF was by daily oral administration of a low dose of 80 mg/kg/day.
# In further experiments, transplant recipients were treated with a shorter course of administrations and a different route of administration.
# [4] = test system: spleen cells (lymphocytes); test: KLH restimulation of spleen cells from sCD83-treated EAE mice; format: in vivo, mouse; conditions: sCD83 100 μg daily for ten days, KLH 28 days after last injection, spleen cells ten days later
# Method: In order to induce EAE, mice were immunized with a peptide derived from myelin oligodendrocyte glycoprotein (MOG), a constituent of the myelin sheath surrounding neurons of the central nervous system, and with pertussis toxin (see, e.g., Zinser et al. (2004) J. Exp. Med. 200: 345-351). Beginning ten days later, the mice were inoculated with soluble CD83 (100 μg) every day for ten days. 28 days after the last injection of soluble CD83, mice were injected subcutaneously with keyhole limpet hemocyanin (“KLH,” 10 μg/mouse). Ten days later, spleen cells were removed from the mice and restimulated with different doses of KLH. Lymphocyte proliferation in response to this stimulation was measured by [^3H]-thymidine incorporation.
# [5] = test system: spleen cells; test: KLH re-stimulation assay, CD83 window of effectiveness; format: in vivo, CBA mice; conditions: sCD83 100 μg 10 times every second day; KLH after 11 days; spleen cells ten days later
# Method: Mice were evaluated to determine the period of time after administration of CD83 in which a subject would be tolerized to another administered antigen. Soluble CD83 (100 μg) was administered to CBA mice by injection 10 times every second day. After 11 days, treated animals were immunized with keyhole limpet hemocyanin (KLH, 10 μg). Ten days later, spleen cells were removed and re-stimulation assays were performed as described in International patent publication WO 2004/046182, the contents of which are incorporated by reference.
# [6] = test system: mouse immunostimulatory dendritic cells and mouse T cells; test: Allogenic MLR assay with murine BM-DCs and T cells; format: cell-based
# Method: C57/BL6 mice and BALB/C mice (male or female; Charles River, Wiga, Sulzfeld, Germany) were used at the ages of between 1 and 4 months. Generation of bone-marrow-derived dendritic cells (“BM-DCs”) was performed as described in Lutz et al. (1999) J. Immunol. Meth. 223: 77. RPMI 1640 (Life Technologies, Karlsruhe, Germany) was supplemented with 100 U/ml penicillin (Sigma), 100 μg/ml streptomycin (Sigma), 2 mM L-glutamine (Sigma), […] (Sigma), and 10% heat-inactivated filtered FCS (PAA, Colbe, Germany). GM-CSF was used at 200 U/ml (PrepoTech/Tebu, Rocky Hill, N.J.) on days 0, 3, 6 and 8 of the incubation period.
# An allogenic MLR assay was performed as follows: CD4^+ and CD8^+ T cells were isolated from inguinal and […] lymph nodes of BALB/C mice and co-cultured (2×10^5 cells/well) for 3 days with BM-DCs (at different ratios) that had been processed through day 9 of the preparation protocol for BM-DCs. Culture was in 96-well culture dishes, and the media was 200 microliters RPMI 1640 supplemented with 100 U/ml penicillin, 100 µg/ml streptomycin, 2 mM L-glutamine, […], and 10% heat-inactivated filtered FCS. […] The culture supernatants were harvested onto glass fiber filters using an Inotech 1H-110 harvester (Inotech, Dottikon, Switzerland), and filters were counted in a Wallac 1450 microplate counter (Wallac, Turku, Finnland).
# [7] = test system: B cells of transplant recipient; test: Ex vivo proliferation of transplant recipient B-cells; parameters: species or system mouse; conditions: C3H heart in C57BL/6; sCD83 100 μg daily i.p.; B cells day 8, stimulated with LPS
# Method: Antibody Production Protocols for ex vivo Work: B cell proliferation: C57B1/6 mice were given a heterotopic cardiac allograft from a C3H mouse. Mice were then left untreated or were treated with a daily dose of 100 μg of sCD83 by intraperitoneal injection. Mice were then sacrificed on day 8, which was approximately the mean survival time of untreated mice. B-cells were then harvested from the mouse spleens and pure populations of 10^5 B-cells/well were cultured with 2 μg/mL of LPS to stimulate the cells (with no added sCD83). After 48 hours of culture, ^3H-thymidine was added, and after an additional 18-20 hours of culture, the cells were harvested and ^3H-thymidine incorporation was measured.
# (§1) Eight days after transplantation (when the transplant would typically be rejected in untreated mice), the mice were sacrificed. B cells were purified from recipient mice, cultured, and stimulated with LPS. ^3H-thymidine incorporation was measured as counts per minute (cpm).
# [8] = test system: B cells of transplant recipient; test: Ex vivo IgM and IgG production by transplant recipient B cells; parameters: species or system mouse; conditions: C3H heart in C57BL/6; sCD83 100 μg daily i.p.; B cells day 8, LPS, 72 hours
# Method: IgM & IgG production: C57B1/6 mice were given a heterotopic cardiac allograft from a C3H mouse. Mice then were left untreated or were treated with a daily dose of 100 μg of sCD83 by intraperitoneal injection. Mice were then sacrificed on day 8, which was approximately the mean survival time of untreated mice. B cells were harvested from the spleens of recipient mice and cultured at 2×10^6 B-cells/well with 20 ug/mL LPS (to induce antibody production, with no added sCD83). After 72 hours of culture, supernatants were harvested and IgM and IgG production measured by ELISA.
# as §1, with “After 72 hours of culture, supernatants were collected and IgM and IgG production” for “^3H-thymidine incorporation”, “using ELISA.” for “as counts per minute (cpm).”
# [9] = test system: donor-specific allo-antibody (IgM, IgG); test: Allo-antibody in transplant recipient sera (staining of donor splenocytes); format: in vivo, mouse; conditions: C3H heart in C57BL/6; sera eight days after transplantation
# Method: In these experiments, sera were collected from transplant recipients (from control-treated, sCD83-treated and treatment-naïve individuals). Splenocytes were removed from the transplant donor(s) and incubated with the transplant recipient sera. The binding of antibodies from the allo-anti sera to the surface of the transplant donor splenocytes was monitored selectively using antibodies specific for the Fc-fragments of mouse IgM and IgG. […] Stained cells can be analyzed using FACS.
# In the transplantation procedure, hearts were removed from C3H mice and transplanted into C57BL/6 mice, which were then either treated with sCD83 or left untreated. Sera were collected from the C57BL/6 transplant recipients eight days after transplantation (the approximate time when untreated mice would typically reject the transplant (i.e., show full tissue rejection)). This recipient sera was then used to stain splenocytes from the C3H donors, and allo-antibody binding was detected with FITC-conjugated antibodies specific to either the anti-IgG or anti-IgM Fc-fragment. […] Sera from untreated transplant recipients was also able to stain C3H-donor-derived splenocytes above control levels.
# [10] = test system: mDCs; test: TNF-α and activation markers in mDCs of PBMCs stimulated with LPS and IFN-γ; format: cell-based, cynomolgus monkeys; conditions: PBMCs incubated overnight with sCD83; LPS 1 μg/ml and IFN-γ 100 U/ml for 6 hours
# Source text: We wished to examine the in vitro functional properties of human sCD83 on peripheral blood DCs, monocytes, and T cells. Mature DCs (“mDCs”) from cynomolgus monkeys were identified using FACS with four-color staining as cells that were HLA-DR positive, lineage negative (i.e. CD3, CD20, CD14, and CD16 negative), and CD11c positive. Intracellular TNF-α, IL-6, and surface markers CD83, CD80, CD86, and CCR5 (which are increased in activated, mature DCs) were also monitored.
# (§2) To evaluate the effect of sCD83 on mDCs, isolated PBMCs (1×10^6 cells) from cynomolgus monkeys were incubated overnight with sCD83. Cells were stimulated with LPS (1 μg/ml) and IFN-γ (100 U/ml) for 6 hours. Intracellular TNF-α levels and surface markers were detected in mDCs using FACS. Results representative of one out of three experiments are shown in FIG. 11; results were expressed as % positive cells and mean fluorescence units (MFU).
# [11] = test system: monocytes; test: TNF-α and activation markers in monocytes of PBMCs; format: cell-based, cynomolgus monkeys; conditions: PBMCs incubated overnight with sCD83
# Method: as §2, with “monocytes,” for “mDCs,”, “sCD83 (1×10^6 cells).” for “sCD83. Cells were stimulated with LPS (1 μg/ml) and IFN-γ (100 U/ml) for 6 hours.”, “monocytes” for “mDCs”, “12;” for “11;”
# [12] = test system: CD4+ T cells; test: Regulatory T cell generation from purified CD4+ T cells; format: cell-based, cynomolgus monkeys; conditions: CD4+ T cells stimulated for 6 days
# Source text: To evaluate the effect of sCD83 on CD4^+ T cells, these cells were purified from cynomolgus monkeys and then stimulated in the presence or absence of sCD83 or anti-CD28 mAb for 6 days. Cells were then stained to identify regulatory T cells (i.e., CD4^+CD25^+ Foxp3^+ cells) and analyzed by FACS.
# [13] = test system: T cells stimulated with allogeneic mature dendritic cells; test: Regulatory T cell generation by sCD83-treated allogeneic dendritic cells; format: cell-based, cynomolgous monkeys; conditions: DCs treated with sCD83 50 μg/ml; different DC:T ratios
# Method: Regulatory T cells were also prepared using dendritic cells prepared from cynomolgous monkeys, as follows. Cynomolgous monkey myeloid dendritic cells were generated from CD14^+ monocyte cells in the presence of GM-CSF and IL-4 for 7 days; soluble CD83 at 50 ug/ml was added to some cultures on days 3 through 7, and a maturation cocktail of IL-1(3, IL-6, TNF-α and PGE-2 was added on days 5 through 7. T cells (1×10^6/ml) were isolated by negative selection and stimulated at different ratios with the allogeneic mature dendritic cells that had been either treated or untreated with sCD83 (50 μg/ml). Cells were then stained to identify regulatory T cells (i.e. CD4^+CD25^+ Foxp3^+ cells) and analyzed by FACS.
# [14] = test system: dendritic cells; conditions: soluble CD83 4 μg/ml in final maturation step, cited from earlier work
# [15] = sCD83 100 μg i.p. daily days 1-7 then q.o.d. days 8-16, sirolimus 2 mg/kg p.o. days 0-14, anti-CD45RB mAb 100 μg i.v. days 0-14
molecule,measurement,setting,value
"CO[C@H]1C[C@@H]2CC[C@@H](C)[C@@](O)(O2)C(=O)C(=O)N2CCCC[C@H]2C(=O)O[C@H]([C@H](C)C[C@@H]2CC[C@@H](O)[C@H](OC)C2)CC(=O)[C@H](C)/C=C(\C)[C@@H](O)[C@@H](OC)C(=O)[C@H](C)C[C@H](C)/C=C/C=C/C=C/1C [Sirolimus, sirolimus, reference compound]",MST,[1],21.3 ± 6.2 days
same,MST,[2]; [15],16.7 ± 2.1 days
"C=CC[C@@H]1/C=C(\C)C[C@H](C)C[C@H](OC)[C@H]2O[C@@](O)(C(=O)C(=O)N3CCCC[C@H]3C(=O)O[C@H](/C(C)=C/[C@@H]3CC[C@@H](O)[C@H](OC)C3)[C@H](C)[C@@H](O)CC1=O)[C@H](C)C[C@@H]2OC [Tacrolimus, tacrolimus, reference compound]",MST,[3],16.3 ± 1.0 days
B1,MST,[3],15.8 ± 1.0 days
same,Lymphocyte proliferation in response to KLH ([3H]-thymidine incorporation),[4],"did not induce long-lasting, global immunosuppression"
same,Tolerization to KLH (re-stimulation assay),[5],not tolerized to the antigen
same,Cluster formation between dendritic cells and T cells,[6],inhibited
same,Ability of murine immunostimulatory dendritic cells to stimulate T cells,[6]; [3H]-thymidine,inhibited in a concentration-dependent manner
same,Ex vivo B-cell proliferation (3H-thymidine incorporation),[7],suppresses
same,"Ex vivo antibody production (IgM and IgG, ELISA)",[8],suppresses
same,Allo-antibody activity (donor-specific binding of IgM or IgG),[9],low allo-antibody activity; also recorded: can prevent the induction of an allo-antibody response
same,In vitro production of TNF-α by mDCs,[10],suppressed
same,"Surface expression of mDC activation markers CD83, CD86, CCR5, and CD80",[10],suppressed
same,In vitro production of TNF-α by monocytes,[11],moderately suppressed
same,Surface expression of monocyte activation markers,[11],moderately suppressed
same,Generation of regulatory T cells (CD4+CD25+ Foxp3+ cells),[12],promoted the generation of regulatory T cells
same,Regulatory T cells generated by dendritic cells,[13],increased numbers of regulatory T cells
same,CD14 positive cells,[14]; compared with normally matured DCs,increase
same,Cell surface expression of CD80,[14]; normally matured DCs 96%,66%
same,Cell surface expression of CD83,[14]; normally matured DCs 96%,30%
same,MST,[1],10.0 ± 1.4 days
same,Acute rejection / graft acceptance (in words),[2]; sCD83 100 μg,reduced symptoms of acute rejection
same,MST,[2]; [15],10.7 ± 1.5 days
same,MST,[2]; sCD83 266 ug,14.7 ± 0.6 days
same,MST,[2]; sCD83 400 ug,15 ± 1.0 days
